Measurements from PMC8748766, “The catalytic activity of TCPTP is auto-regulated by its intrinsically disordered tail and activated by Integrin alpha-1” (Nature Communications, 2022).
Numbering of substitutions follows the chain as printed. Numbers in names are those of the source.

Key:
[1] = test system: pEGFR peptide-1, derived from the cytoplasmic tail of EGFR; test: Phosphatase kinetic analysis (Michaelis-Menten) of TCPTP constructs, pEGFR peptide-1 substrate; assay type: biochemical; conditions: mean ± SE, n = 9 (TCPTPCAT, TCPTP) or 12 (TCPTPC-term, TCPTPL1)
Experimental: (§1) The rate of dephosphorylation of TCPTP and TCPTPCAT (residue 1–314) against 2 phosphotyrosine peptides derived from EGFR was monitored either with or without ITGA1 peptide (ITGA1_FCT & ITGA1_TR) in assay buffer (25 mM Hepes pH 7.4, 50 mM NaCl and 1 mM DTT). Lyophilized powder of all synthetic peptides was dissolved in assay buffer without DTT (phosphopeptides, 5 mM; ITGA1 peptides, 2 mM). For the kinetic analysis, the concentration of the enzyme was fixed at 1 nM while the substrate (phosphopeptides) concentration was varied from 2.5 μM to 160 μM in a total reaction volume of 200 μl. Effect of ITGA1 peptide on TCPTP & TCPTPCAT kinetics were assessed in saturated condition by adding an excess amount of ITGA1 peptide to the reaction mixture (ITGA1_TR = 1 μM; ITGA1_FCT = 25 μM). The reaction was incubated at 30 °C for 30 min and stopped by the addition of 30 μl phosphate reagent (phosphate colorimetric assay kit; Bio Vision) following the manufacturer’s instructions. Data were normalized and fitted using a nonlinear curve, and kinetics parameters (KM and kcat) were calculated from the Michaelis-Menten equation using Graph Pad Prism 9.0. All data points in the enzyme kinetics experiment were measured in triplicate, and the experiments were repeated three times.

[2] = test system: pEGFR peptide-2, derived from the EGFR's kinase domain activation loop; test: Phosphatase kinetic analysis (Michaelis-Menten) of TCPTP constructs, pEGFR peptide-2 substrate; assay type: biochemical; conditions: mean ± SE, n = 9
Experimental: as §1
Supplementary Table 2: Enzymatic activity assay (Michaelis-Menten analysis); substrate pEGFR peptide-2, derived from the EGFR’s kinase domain activation loop. Calculated kinetic parameter are presented as the mean of nine independent reactions (n=9; mean ± SE). Source data are provided as a Source Data file. kcat (s-1) Km (µM) kcat/Km (µM -1s-1)

[3] = molecular target: T1, TCPTP (full-length TCPTP, residues 1-387, TC45 isoform) (human, UniProt P17706-2 1-387); test: cell-based or functional assay
T1 sequence (looked up): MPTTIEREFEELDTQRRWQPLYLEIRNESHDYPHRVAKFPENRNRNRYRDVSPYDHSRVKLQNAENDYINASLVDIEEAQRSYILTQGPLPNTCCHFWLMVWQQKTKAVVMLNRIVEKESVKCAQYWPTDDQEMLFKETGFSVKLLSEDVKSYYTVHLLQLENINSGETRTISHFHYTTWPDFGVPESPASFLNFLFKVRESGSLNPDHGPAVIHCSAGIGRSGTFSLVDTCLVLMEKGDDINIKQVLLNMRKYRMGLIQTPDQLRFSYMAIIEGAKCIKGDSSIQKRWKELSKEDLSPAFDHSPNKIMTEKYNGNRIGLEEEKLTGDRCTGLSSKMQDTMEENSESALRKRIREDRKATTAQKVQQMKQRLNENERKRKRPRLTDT

[4] = molecular target: T2, TCPTPCAT (TCPTP catalytic domain, residues 1-302) (human, UniProt P17706-2 1-302); test: NMR titration; 15N-labelled tail observed (2D [1H,15N] HSQC, 0.1 mM), unlabelled TCPTPCAT added in increasing amounts (1:0 to 1:20 tail:CAT); NMR buffer 20 mM HEPES pH 6.8, 150 mM NaCl, 0.5 mM TCEP, 90% H2O/10% D2O; 298 K or 283 K; conditions: both partners purified
T2 construct: T cell protein tyrosine phosphatase (TCPTP, PTPN2), human, TC45 isoform, catalytic domain residues 1-302, sub-cloned into pRP1B for all NMR experiments; (2H,15N)-labelled where it was the observed species, unlabelled where it was titrated into the labelled tail; also called T-Cell Protein Tyrosine Phosphatase catalytic domain; PTPN2 catalytic domain; source: E. coli BL21 (DE3) RIL, purified …
T2 sequence (looked up): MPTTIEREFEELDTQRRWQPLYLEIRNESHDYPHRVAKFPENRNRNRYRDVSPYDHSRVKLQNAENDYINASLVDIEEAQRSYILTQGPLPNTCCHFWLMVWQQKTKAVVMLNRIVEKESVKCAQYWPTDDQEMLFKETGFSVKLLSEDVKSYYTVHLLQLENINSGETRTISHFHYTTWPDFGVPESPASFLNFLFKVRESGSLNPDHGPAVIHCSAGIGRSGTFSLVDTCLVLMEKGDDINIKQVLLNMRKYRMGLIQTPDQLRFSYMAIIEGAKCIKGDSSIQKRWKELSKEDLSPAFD

[5] = molecular target: T3, TCPTPCAT (Homo sapiens, UniProt P17706); test: NMR titration (2D HSQC/TROSY) binding to TCPTPCAT
T3 construct: TCPTP and TCPTPCAT (residue 1–314) against 2 phosphotyrosine peptides derived from EGFR; His6 (N, cleaved yes); made in house; host or cells: E. coli BL21 (DE3) RIL
T3 sequence (P17706 1-314 isoform P17706-2): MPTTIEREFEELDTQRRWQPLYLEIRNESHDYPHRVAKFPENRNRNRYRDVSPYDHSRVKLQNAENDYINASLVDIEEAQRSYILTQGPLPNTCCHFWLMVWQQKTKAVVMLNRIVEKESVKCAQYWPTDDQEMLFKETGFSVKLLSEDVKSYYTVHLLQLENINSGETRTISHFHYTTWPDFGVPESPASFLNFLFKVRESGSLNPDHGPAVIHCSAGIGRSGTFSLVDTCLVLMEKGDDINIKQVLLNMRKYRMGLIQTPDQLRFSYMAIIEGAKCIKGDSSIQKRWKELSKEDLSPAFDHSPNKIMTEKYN
Description: Polymerase chain reaction (PCR) fragments of TCPTP (residues: 1–387) TCPTPCAT (catalytic domain, residues: 1–288, 1–302 or 1–314), TCPTPTail (C-terminal tail, residues: 289–387 or 303–387) were amplified from full-length human TCPTP (TC45 isoform). TCPTP, TCPTPCAT (residues: 1–288, 1–314), and TCPTPTail (residues: 289–387) fragments were cloned into pMCSG7 including a N-terminal His6-tag using ligation-independent cloning. For all NMR experiments, the PCR fragments of TCPTP, TCPTPCAT (residues: 1–302) and TCPTPTail (residue: 303–387) were sub-cloned into pRP1B as previously described.
NMR data were collected on either Bruker NEO 600 MHz or 800 MHz spectrometers equipped with TCI HCN z-gradient cryoprobes at 298 K or 283 K. NMR measurements of TCPTP’s variant construct were recorded using (^1H,^15N)-, (^2H,^15N)-, (^1H,^15N,^13C), or (^2H,^15N,^13C)-labeled protein at a final concentration of 0.6 mM for backbone assignment or 0.1 mM for titration in NMR buffer and 90% H2O/10% D2O. The sequence-specific backbone assignments of TCPTP (residues 1–387), TCPTPCAT (residues 1–302), TCPTPTail (residues 303–387) and other variants were achieved using 3D triple resonance experiments including […], 3D HNCA, 3D HN(CO)CA, 3D HN(CO)CACB, and 3D HNCACB either as HSQC or TROSY variations. All NMR data were processed using TopSpin 4.0.5[44] and analyzed using either CARA (http://www.cara.nmr.ch) and/or CcpNMR[45].

[6] = DiFMUP assay of TCPTP, TCPTPCAT, PTP1B and PTP1BCAT; assay type: biochemical; conditions: PTP1B (1–400) vs PTP1BCAT (1–321), DiFMUP, n = 6
Experimental: Activity of TCPTP, TCPTPCAT (residue 1–314) either with or without ITGA1 peptides (ITGA1_TR; 1:50 molar ratio, ITGA1_FCT; 1:1000 molar ratio), PTP1B (residue 1–400) and PTP1BCAT (residue 1–321) were assessed in assay buffer (25 mM Hepes pH 7.4, 50 mM NaCl, and 1 mM DTT). The assay was performed in black polystyrene flat bottom 96-well plate. The concentration of DiFMUP was fixed at 10 μM and protein concentration at 2.5 nM in total reaction volume of 100 μl. The emitted fluorescent signal at 455 nm was continuously recorded for 25 min using a Tecan Infinite M1000 pro microplate reader (Tecan i-control, 2.0.10.0).

[7] = pEGFR peptide-2 2.5-160 μM, 1 nM enzyme, pH 7.4, 30 °C 30 min

B1: TCPTPCAT: TCPTP catalytic domain, residues 1–288, 1–302 (NMR) or 1–314 (activity, SAXS) (protein, UniProt P17706 1-314, looked up, fragment)
chain: T3 sequence (P17706 1-314 isoform P17706-2)
modifications: catalytic domain
Which kcat ([1]; pEGFR peptide-1 2.5-160 μM, 1 nM enzyme, 25 mM Hepes pH 7.4, 50 mM NaCl, 1 mM DTT, 30 °C 30 min) does the source give for B1 here?
The kcat was 34.0 ± 0.9 s⁻¹.

What about the Km ([1]; pEGFR peptide-1 2.5-160 μM, 1 nM enzyme, pH 7.4, 30 °C 30 min) of the same molecule?
Its Km is 24.8 ± 2 µM.

And the kcat/Km ([1]; pEGFR peptide-1, pH 7.4, 30 °C)?
The kcat/Km was 1.4 ± 0.1 µM⁻¹ s⁻¹.

What about the Km [2, 7] of the same molecule?
The Km was 34 ± 2.2 µM.

And the kcat [2, 7]?
The kcat was 36.3 ± 0.9 s⁻¹.

What about the kcat/Km ([2]; pEGFR peptide-2) of the same molecule?
Its kcat/Km is 1.1 ± 0.1 µM -1s-1.

Which “rate of dephosphorylation (EGFR phosphopeptides, DiFMUP) by TCPTP saturated with excess ITGA1 peptide (ITGA1_FCT 25 μM), against TCPTP alone” value [3] does the source give for KIGFFKRPLKKKMEK [ITGA1_FCT (ITGA1 full cytoplasmic tail)] here?
The value was roughly 3 fold.

B2: TCPTP_(Tail) (C-terminal tail, residues 303-387) (domain or fragment, human, UniProt P17706-2 303-387, looked up)
chain: HSPNKIMTEKYNGNRIGLEEEKLTGDRCTGLSSKMQDTMEENSESALRKRIREDRKATTAQKVQQMKQRLNENERKRKRPRLTDT
notes: T cell protein tyrosine phosphatase (TCPTP, PTPN2), human, TC45 isoform, C-terminal tail residues 303-387, sub-cloned into pRP1B for all NMR experiments; also called TCPTP C-terminal tail; TCPTP IDR; source: E. coli BL21 (DE3) RIL, purified (His-trap, TEV cleavage, subtraction, heat step 80 °C 10 min, SEC)
Does B2 bind [4]?
Result: binds

B3: TCPTP_(TailRK) (N373R/E374K/N375R/E376K) (domain or fragment, human, UniProt P17706-2 303-387, looked up)
chain: B2 chain with N71R, E72K, N73R, E74K
notes: T cell protein tyrosine phosphatase (TCPTP, PTPN2), human, TC45 isoform, C-terminal tail with 373NENE376 changed to 373RKRK376; 15N-labelled when observed; also called TCPTP_(TaiRK); source: E. coli BL21 (DE3) RIL, purified (His-trap, TEV cleavage, subtraction, heat step 80 °C 10 min, SEC)
Does B3 bind [4]?
Result: binds

B4: TCPTPTailRK: TCPTPTail with N373R/E374K/N375R/E376K (protein)
chain: B2 chain with N71R, E72K, N73R, E74K
modifications: left off: His6, end not stated, cleaved
notes: TCPTPTail with N373R/E374K/N375R/E376K
Which results are given for B4?
NMR titration: interaction strength vs TCPTPTail ([5]; 2D [1H,15N] HSQC, reduction in peak intensities at lower ratio (1:10)): tighter interaction; NMR titration: CSPs in (2H,15N)-labeled TCPTPCAT ([5]; 2D [1H,15N] TROSY, unlabeled ligand added): Small, but clear chemical shift perturbations (CSPs) were readily identified

B5: PTP1B: PTP1B (residue 1–400) (protein, UniProt P18031 1-400, looked up, fragment)
chain: MEMEKEFEQIDKSGSWAAIYQDIRHEASDFPCRVAKLPKNKNRNRYRDVSPFDHSRIKLHQEDNDYINASLIKMEEAQRSYILTQGPLPNTCGHFWEMVWEQKSRGVVMLNRVMEKGSLKCAQYWPQKEEKEMIFEDTNLKLTLISEDIKSYYTVRQLELENLTTQETREILHFHYTTWPDFGVPESPASFLNFLFKVRESGSLSPEHGPVVVHCSAGIGRSGTFCLADTCLLLMDKRKDPSSVDIKKVLLEMRKFRMGLIQTADQLRFSYLAVIEGAKFIMGDSSVQDQWKELSHEDLEPPPEHIPPPPRPPKRILEPHNGKCREFFPNHQWVKEETQEDKDCPIKEEKGSPLNAAPYGIESMSQDTEVRSRVVGGSLRGAQAASPAKGEPSLPEKDED
For B5, which “autoregulatory behavior of the C-terminal tail (activity vs catalytic domain)” value [6] is on record?
Its value is “not observed”.

Which “rate of dephosphorylation (EGFR phosphopeptides, DiFMUP) by TCPTP saturated with excess ITGA1 peptide (ITGA1_TR 1 μM), against TCPTP alone” value [3] does the source give for RPLKKKMEKRPLKKKMEK [ITGA1_TR (ITGA1 tandem repeat; 2x ITGA1_TCT)] here?
Its value is roughly 3 fold.
